The text below walks through data of patent US20240254239A1 (LAEKNA THERAPEUTICS SHANGHAI, published 2024).

For assay [1], the target named is T1, human CD248 ECD (human, UniProt Q9HCU0 18-687).
T1 construct: extracellular domain; also called recombinant extracellular domain of CD248
T1 sequence (looked up): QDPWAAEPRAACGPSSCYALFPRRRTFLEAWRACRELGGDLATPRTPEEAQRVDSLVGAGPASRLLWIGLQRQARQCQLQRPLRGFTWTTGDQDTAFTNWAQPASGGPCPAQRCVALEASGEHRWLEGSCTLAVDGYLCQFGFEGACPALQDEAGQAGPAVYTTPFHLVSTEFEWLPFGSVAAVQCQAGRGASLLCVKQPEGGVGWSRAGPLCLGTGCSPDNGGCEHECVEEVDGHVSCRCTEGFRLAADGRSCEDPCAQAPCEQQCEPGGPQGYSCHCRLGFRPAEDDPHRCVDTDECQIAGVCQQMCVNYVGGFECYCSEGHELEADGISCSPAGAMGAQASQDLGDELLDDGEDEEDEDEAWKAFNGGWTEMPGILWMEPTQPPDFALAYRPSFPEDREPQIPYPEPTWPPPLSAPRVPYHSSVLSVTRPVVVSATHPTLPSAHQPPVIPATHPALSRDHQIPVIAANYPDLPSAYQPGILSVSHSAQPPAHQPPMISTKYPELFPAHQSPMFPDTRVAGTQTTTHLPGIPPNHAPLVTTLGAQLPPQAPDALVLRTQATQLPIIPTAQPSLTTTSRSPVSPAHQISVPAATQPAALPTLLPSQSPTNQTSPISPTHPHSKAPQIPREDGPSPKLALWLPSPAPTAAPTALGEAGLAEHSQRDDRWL
Description: direct ELISA on coated recombinant ECD (30 ng/well), HRP-conjugated secondary antibody, luminescence. The protocol: (§1) Briefly, recombinant extracellular domain of PDGFRb, FAPα, ULBP1, uPAR, IGF1R, SIRPA, PD-L1, ANTXR1, CD248, or GPC3 (30 ng/well) was coated on white optiplate™-384 well HB plate. After overnight coating, standard direct ELISA assay was performed. Luminescence signal was detected after using secondary antibody with HRP conjugated. Binding activity of each antibody was determined based on dose dependent binding curve.

Assay [2] addresses T2, human FAPa ECD (human, UniProt Q12884 26-760).
T2 construct: extracellular domain; also called recombinant extracellular domain of FAPα
T2 sequence (looked up): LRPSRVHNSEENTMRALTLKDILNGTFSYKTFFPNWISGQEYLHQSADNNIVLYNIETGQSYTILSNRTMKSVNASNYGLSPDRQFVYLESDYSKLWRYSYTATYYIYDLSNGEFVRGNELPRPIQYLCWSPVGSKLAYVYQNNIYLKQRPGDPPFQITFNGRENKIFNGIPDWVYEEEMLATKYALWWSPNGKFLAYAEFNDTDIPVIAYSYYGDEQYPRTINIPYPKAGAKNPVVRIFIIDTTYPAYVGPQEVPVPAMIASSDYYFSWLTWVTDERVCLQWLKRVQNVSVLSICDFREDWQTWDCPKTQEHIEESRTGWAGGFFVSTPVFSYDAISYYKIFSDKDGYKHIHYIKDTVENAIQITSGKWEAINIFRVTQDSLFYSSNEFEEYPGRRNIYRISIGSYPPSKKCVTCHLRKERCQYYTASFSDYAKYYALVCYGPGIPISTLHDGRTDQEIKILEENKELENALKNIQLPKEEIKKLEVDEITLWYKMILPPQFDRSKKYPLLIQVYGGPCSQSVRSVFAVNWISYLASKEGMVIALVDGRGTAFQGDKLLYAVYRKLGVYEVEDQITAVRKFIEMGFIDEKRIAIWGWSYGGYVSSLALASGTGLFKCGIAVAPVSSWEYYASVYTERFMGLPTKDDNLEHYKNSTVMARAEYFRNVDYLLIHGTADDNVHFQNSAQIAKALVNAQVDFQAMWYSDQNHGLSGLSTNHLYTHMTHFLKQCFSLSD
Described as above. The procedure:
as §1

Assay [3] addresses T3, human ANTXR1 ECD (human, UniProt Q9H6X2 33-321).
T3 construct: extracellular domain; also called recombinant extracellular domain of ANTXR1
T3 sequence (looked up): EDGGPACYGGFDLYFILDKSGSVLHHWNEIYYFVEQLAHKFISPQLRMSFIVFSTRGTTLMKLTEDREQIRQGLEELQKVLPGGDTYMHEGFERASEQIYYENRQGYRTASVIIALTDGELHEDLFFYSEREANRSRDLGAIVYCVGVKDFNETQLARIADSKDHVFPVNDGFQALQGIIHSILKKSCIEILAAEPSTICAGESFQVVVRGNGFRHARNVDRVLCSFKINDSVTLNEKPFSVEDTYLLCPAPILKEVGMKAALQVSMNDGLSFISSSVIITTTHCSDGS
Described as above. The procedure: as §1

In assay [4] the target is T4, IGF-1R on TGFb1-activated primary human HSC cells (human, UniProt P08069 31-1367).
T4 construct: whole, on cells
Briefly: flow cytometry on TGFb1-activated primary human HSC cells, 10 ug/ml antibody, fluorophore-conjugated secondary antibody. The procedure: Relative expression levels of the antigens on activated HSC were assayed using FACS. Human primary hepatic stellate cells (ScienCell, 5301) were cultured in culture medium (ScienCell, 5300). The cells were activated using 2 ng/ml human TGFb1 (Sinobiological, 10804-HNAC) for 24 hours. These cells were then collected for FACS assay. Briefly, the cells were incubated with 10 μg/ml primary antibody in blocking buffer (10% FBS in PBS) at 4 °C for 1 hour. After two rounds of PBS washes, the cells were stained with secondary antibody conjugated with a fluorophore. The mean fluorescence intensity was measured using FACS. Among the antigens tested, fibroblast activation protein alpha (FAPα) was expressed at relatively high levels, while uPAR, IGF-1R, GPC3, CD248 and NKG2D ligands were expressed at relatively low levels on TGFb1-activated HSC cells.

Assay [5] addresses T5, human PD-L1 ECD (human, UniProt Q9NZQ7 19-238).
T5 construct: extracellular domain; also called recombinant extracellular domain of PD-L1
Description: direct ELISA on coated recombinant ECD (30 ng/well), HRP-conjugated secondary antibody, luminescence. The protocol: as §1

T4 sequence (P08069 31-1367): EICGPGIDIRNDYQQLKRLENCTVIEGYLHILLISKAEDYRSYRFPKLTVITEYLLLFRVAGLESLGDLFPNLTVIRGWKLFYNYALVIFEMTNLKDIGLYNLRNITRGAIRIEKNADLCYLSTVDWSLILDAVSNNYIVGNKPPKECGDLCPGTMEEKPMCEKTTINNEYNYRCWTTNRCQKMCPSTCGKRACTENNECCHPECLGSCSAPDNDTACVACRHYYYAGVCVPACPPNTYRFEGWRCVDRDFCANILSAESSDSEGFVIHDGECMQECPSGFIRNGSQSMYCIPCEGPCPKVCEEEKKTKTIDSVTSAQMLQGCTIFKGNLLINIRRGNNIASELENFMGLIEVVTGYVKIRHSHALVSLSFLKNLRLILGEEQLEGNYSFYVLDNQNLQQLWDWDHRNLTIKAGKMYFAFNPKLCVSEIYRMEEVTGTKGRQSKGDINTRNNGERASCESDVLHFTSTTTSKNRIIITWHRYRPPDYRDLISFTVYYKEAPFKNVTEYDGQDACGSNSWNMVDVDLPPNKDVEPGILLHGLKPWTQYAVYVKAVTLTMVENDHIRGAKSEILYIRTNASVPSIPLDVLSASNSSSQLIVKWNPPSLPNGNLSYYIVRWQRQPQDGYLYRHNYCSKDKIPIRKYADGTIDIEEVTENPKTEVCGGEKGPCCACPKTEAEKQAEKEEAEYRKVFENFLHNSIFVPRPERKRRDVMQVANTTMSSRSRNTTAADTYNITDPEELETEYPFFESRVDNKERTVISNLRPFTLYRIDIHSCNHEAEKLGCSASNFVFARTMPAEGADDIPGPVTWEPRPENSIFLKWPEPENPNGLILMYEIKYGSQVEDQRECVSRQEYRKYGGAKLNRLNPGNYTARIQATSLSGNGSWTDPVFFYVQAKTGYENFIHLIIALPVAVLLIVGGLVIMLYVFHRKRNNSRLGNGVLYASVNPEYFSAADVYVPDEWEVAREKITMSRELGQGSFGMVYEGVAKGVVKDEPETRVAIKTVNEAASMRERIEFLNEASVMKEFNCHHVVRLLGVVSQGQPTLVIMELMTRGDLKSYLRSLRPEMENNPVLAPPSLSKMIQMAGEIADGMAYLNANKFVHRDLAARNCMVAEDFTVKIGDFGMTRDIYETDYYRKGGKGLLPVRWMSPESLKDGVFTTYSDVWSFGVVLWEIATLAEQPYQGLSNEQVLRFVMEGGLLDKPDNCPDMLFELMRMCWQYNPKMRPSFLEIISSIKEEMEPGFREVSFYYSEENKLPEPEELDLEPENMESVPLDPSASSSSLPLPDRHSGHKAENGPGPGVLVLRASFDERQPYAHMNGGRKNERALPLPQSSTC
T5 sequence (Q9NZQ7 19-238): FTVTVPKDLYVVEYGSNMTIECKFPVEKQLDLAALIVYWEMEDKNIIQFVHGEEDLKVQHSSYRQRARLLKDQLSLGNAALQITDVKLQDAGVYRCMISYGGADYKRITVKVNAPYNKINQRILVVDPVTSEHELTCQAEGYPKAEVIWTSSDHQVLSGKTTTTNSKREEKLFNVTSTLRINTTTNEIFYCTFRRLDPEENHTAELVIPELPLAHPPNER

B1: α-CD248 1 mIgG2a S239D/1332E (antibody, V domains shown)
VH: QVQLQESGPGLVAPSQSLSITCTVSGFSLTGYGVNWVRQPPEKGLEWLGMIWVDGSTDYNSALKSRLNISKDKSKSQVFLKMNSLQTDDTARYYCARGGYGAMDYWGQGTSVTVSS
VL: DIQMNQSPSSLSASLGDTITITCHASQNINVWLTWYQQKPGNIPKLLIYKASNLHTGVPSRFSGSGSGTGFTLTISSLQPEDIATYYCQQGQSYPWTFGGGTKLEIKR
notes: mIgG2a with S239D/I332E; also called α-CD248 1 mIgG2a S239D/I332E; exemplary anti-CD248 antibody (α-CD248 1)
Take B1: the 50% effective concentration (EC50 (read off the curve)) in assay [1] is around 0.04 µg/mL.

B2: α-FAPa 1 S239D/1332E (antibody, mouse IgG2a, kappa, V domains shown)
VH: QVQLVQSGAEVKKPGASVKVSCKTSRYTFTEYTIHWVRQAPGQRLEWIGGINPNNGIPNYNQKFKGRVTITVDTSASTAYMELSSLRSEDTAVYYCARRRIAYGYDEGHAMDYWGQGTLVTVSS
VL: DIVMTQSPDSLAVSLGERATINCKSSQSLLYSRNQKNYLAWYQQKPGQPPKLLIFWASTRESGVPDRFSGSGFGTDFTLTISSLQAEDVAVYYCQQYFSYPLTFGQGTKVEIKR
notes: also called α-FAPα 1 S239D/I332E
On to B2, for which the binding result in assay [2] is given as “binds”.

B3: α-ANTXR1 2 mIgG2a S239D/1332E (antibody, V domains shown)
VH: QVQLKESPGALVKPTQTLTLTCTFSGFSLSTSGGGVSWIRQPPGKALEWLAHIYSNDDKSYSTSLKTRLTISKDTSKNQVVLTMTNMDPVDTATYYCARGGYFLDYWGQGTLVTVSS
VL: DIELTQPPSVSVAPGQTARISCSGDNIGGIYVHWYQQKPGQAPVLVIYADSKRPSGIPERFSGSNSGNTATLTISGTQAEDEADYYCQSYDITSLVFGGGTKLTVLG
notes: mIgG2a with S239D/I332E; also called α-ANTXR1 2 mIgG2a S239D/I332E; exemplary anti-ANTXR1 antibody (α-ANTXR1 2)
Regarding B3, in assay [3], the concentration giving a half-maximal response (EC50 (read off the curve)) was around 0.02 µg/mL.

B4: α-IGF1R 1 S239D/1332E (antibody, human IgG1, kappa, V domains shown)
VH: EVQLLESGGGLVQPGGSLRLSCAASGFTFSIYRMQWVRQAPGKGLEWVSGISPSGGTTWYADSVKGRFTISRDNSKNTLYLQMNSLRAEDTAVYYCARWSGGSGYAFDIWGQGTMVTVSS
VL: DIQMTQSPLSLSASVGDRVTITCQASRDIRNYLNWYQQKPGKAPKLLIYDASSLQTGVPSRFGGSGSGTDFSFTIGSLQPEDIATYYCQQFDSLPHTFGQGTKLEIKR
notes: hIgG1 with S239D/I332E; also called α-IGF1R 1 S239D/I332E; exemplary anti-IGF1R antibody (α-IGF1R 1)
For B4, the binding result in assay [4] was “binds”.

B5: α-PDL1 1 S239D/1332E (antibody, human IgG1, kappa, V domains shown)
VH: EVQLVQSGAEVKKPGATVKISCKVSGYTFTSYWMYWVRQARGQRLEWIGRIDPNSGSTKYNEKFKNRFTISRDNSKNTLYLQMNSLRAEDTAVYYCARDYRKGLYAMDYWGQGTTVTVSS
VL: AIQLTQSPSSLSASVGDRVTITCKASQDVGTAVAWYLQKPGQSPQLLIYWASTRHTGVPSRFSGSGSGTDFTFTISSLEAEDAATYYCQQYNSYPLTFGQGTKVEIKR
notes: Humanized, hIgG1 isotype, with S239D/I332E; also called α-PDL1 1 S239D/I332E; exemplary anti-PDL1 antibody (α-PDL1 1)
Take B5: in assay [5], the “EC50 (read off the curve)” value is around 0.02 µg/mL.

B6: α-IGF1R 2 S239D/1332E (antibody, human IgG1, kappa, V domains shown)
VH: EVQLLESGGGLVQPGGSLRLSCAASGFTFSNYPMYWVRQAPGKGLEWVSRISSSGGRTVYADSVKGRFTISRDNSKNTLYLQMNSLRAEDTAVYYCARDRWSRSAAEYGLGGYWGQGTLVTVSS
VL: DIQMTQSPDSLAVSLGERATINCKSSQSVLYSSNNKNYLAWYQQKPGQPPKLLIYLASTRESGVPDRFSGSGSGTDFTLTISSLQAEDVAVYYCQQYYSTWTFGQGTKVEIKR
notes: hIgG1 with S239D/I332E; also called α-IGF1R 2 S239D/I332E; exemplary anti-IGF1R antibody (α-IGF1R 2)
For B6, in assay [4], the binding result is on record as “binds”.
